The text below walks through data of patent publication US20120324600A1, “CONSTITUTIVE SYNTHETIC PLANT PROMOTERS AND METHODS OF USE” (SYNGENTA PARTICIPATIONS AG, priority 2010, published 2012).

Common to all, as to format: in vivo
The test system of data set [1] is oat HPPD protein expression. The data set can be described thus: oat HPPD protein expression by ELISA in T1 transgenic soybean events. The settings on record: inferred from ELISA and mesotrione tolerance of HOM vs HET siblings. The source says: To express a synthetic oat (Avena sativa) 4-hydroxyphenylpyruvate dioxygenase (cAvHPPD) in stably transformed soybean, viral transcriptional and translational enhancers, and a minimal promoter were created by PCR or direct DNA synthesis and combined by standard DNA restriction digestion and ligation reactions. A synthetic plant promoter comprising defined components eFMV (SEQ ID NO: 1), eTMV (SEQ ID NO: 2), the Cauliflower Mosaic Virus 35S enhancer region (e35S) and a minimal promoter (pr35SCMP: Cestrum Yellow Leaf Curl virus TATA-box motif; no CAAT 35S-proximal promoter sequence) were combined to create SEQ ID NO: 3. Subsequently, SEQ ID NO: 3 was modified by digestion with a DNA restriction enzyme XhoI to remove defined components e35S, pr35SCMP (including the TATA-box motif) followed by a standard ligation reaction to create SEQ ID NO: 4. […] One skilled in the art would readily recognize other subelements which would be suitable to use.
The plasmids containing the synthetic plant promoter expression cassettes were transformed into soybean using Agrobacterium tumefaciens. […] Expression of cAvHPPD of surviving T0 plants was quantified by ELISA (Engvall E, Perlman P (1971). “Enzyme-linked immunosorbent assay (ELISA). Quantitative assay of immunoglobulin G”. Immunochemistry 8(9):871-874).
(§1) The first generation transgenic soybean events (T1) harboring SEQ ID NO: 3, SEQ ID NO: 4, SEQ ID NO: 5, SEQ ID NO: 6, or SEQ ID NO: 7 were characterized for segregation analysis, oat HPPD protein expression and tolerance to mesotrione herbicide spray. The green leaf tissues from the first trifoliate of five independent events were sampled to determine the segregation ratios (homozygous, heterozygous or null) of the individual seedlings as determined by zygosity Taqman® assays and oat HPPD protein expression by ELISA. At the V2 stage, the seedlings were sprayed with the HPPD inhibiting herbicide mesotrione and tolerance rating determined approximately 10 days post-application.
A general note: In an ELISA, binding on a coated surface is turned into a signal by an enzyme label.

For data set [2], the system named is transgenic soybean events. Put plainly: tolerance to mesotrione herbicide spray of T1 transgenic soybean seedlings. Conditions: sprayed at V2 stage, rated approximately 10 days post-application.
Excerpt: as §1

Another data set deals with maize. Put plainly: expression of a heterologous sequence in maize. The text has this:
A similar strategy for building synthetic plant promoters for use in maize was implemented.

B1: SEQ ID NO: 5: synthetic plant promoter, subelements eFMV, e35S, iUBQ3, pr35SCMP, eTMV; 1017 bp (nucleic acid)
DNA: AGCTGCTTGTGGGGACCAGACAAAAAAGGAATGGTGCAGAATTGTTAGGCGCACCTACCAAAAGCATCTTTGCCTTTATTGCAAAGATAAAGCAGATTCCTCTAGTACAAGTGGGGAACAAAATAACGTGGAAAAGAGCTGTCCTGACAGCCCACTCACTAATGCGTATGACGAACGCAGTGACGACCACAAAACTCGAGACTTTTCAACAAAGGGTAATATCCGGAAACCTCCTCGGATTCCATTGCCCAGCTATCTGTCACTTTATTGTGAAGATAGTGGAAAAGGAAGGTGGCTCCTACAAATGCCATCATTGCGATAAAGGAAAGGCTATCGTTGAAGATGCCTCTGCCGACAGTGGTCCCAAAGATGGACCCCCACCCACGAGGAGCATCGTGGAAAAAGAAGACGTTCCAACCACGTCTTCAAAGCAAGTGGATTGATGTGATATCTCCACTGACGTAAGGGATGACGAACAATCCCACTATCCTTCTGCAGGTCGACTCTAGAGGATCTTATAAATAGGTATATTTTCTGATTCTTTTTGTTTTTGATTCGTATCTGATCTCCAATTTTTGTTATGTGGATTATTGAATCTTTTGTATAAATTGCTTTTGACAATATTGTTCGTTTCGTCAATCCAGCTTCTAAATTTTGTCCTGATTACTAAGATATCGATTCGTAGTGTTTACATCTGTGTAATTTCTTGCTTGATTGTGAAATTAGGATTTTCAAGGACGATCTATTCAATTTTTGTGTTTTCTTTGTTCGATTCTCTCTGTTTTAGGTTTCTTATGTTTAGATCCGTTTCTCTTTGGTGTTGTTTTGATTTCTCTTACGGCTTTTGATTTGGTATATGTTCGCTGATTGGTTTCTACTTGTTCTATTGTTTTATTTCAGGTGGATCCTATAAATAGGAAGTTCATTTCATTTGGAGAGGAAACCTCGAGTATTTTTACAACAATTACCAACAACAACAAACAACAAACAACATTACAATTACTATTTACAATTACA
modifications: synthetic plant promoter
notes: synthetic plant promoter, subelements eFMV, e35S, iUBQ3, pr35SCMP, eTMV; 1017 bp
For B1, the “transgene silencing in HOM plants” value in data set [1] is on record as “relieve transgene silencing”. The “tolerance to mesotrione herbicide spray” value in data set [2] is “improved tolerance to the HPPD inhibitor herbicide mesotrione”.

B2: SEQ ID NO: 3: synthetic plant promoter, subelements eFMV, e35S, pr35SCMP, eTMV; 625 bp (nucleic acid)
DNA: AGCTGCTTGTGGGGACCAGACAAAAAAGGAATGGTGCAGAATTGTTAGGCGCACCTACCAAAAGCATCTTTGCCTTTATTGCAAAGATAAAGCAGATTCCTCTAGTACAAGTGGGGAACAAAATAACGTGGAAAAGAGCTGTCCTGACAGCCCACTCACTAATGCGTATGACGAACGCAGTGACGACCACAAAACTCGAGACTTTTCAACAAAGGGTAATATCCGGAAACCTCCTCGGATTCCATTGCCCAGCTATCTGTCACTTTATTGTGAAGATAGTGGAAAAGGAAGGTGGCTCCTACAAATGCCATCATTGCGATAAAGGAAAGGCTATCGTTGAAGATGCCTCTGCCGACAGTGGTCCCAAAGATGGACCCCCACCCACGAGGAGCATCGTGGAAAAAGAAGACGTTCCAACCACGTCTTCAAAGCAAGTGGATTGATGTGATATCTCCACTGACGTAAGGGATGACGAACAATCCCACTATCCTTCTGCAGGTCGACTCTAGAGGATCCTATAAATAGGAAGTTCATTTCATTTGGAGAGGAAACCTCGAGTATTTTTACAACAATTACCAACAACAACAAACAACAAACAACATTACAATTACTATTTACAATTACA
modifications: synthetic plant promoter
notes: synthetic plant promoter, subelements eFMV, e35S, pr35SCMP, eTMV; 625 bp
Consider B2, for which the “transgene silencing in HOM plants” value in data set [1] is given as “indicative of transgene silencing”. In addition, the “tolerance to mesotrione herbicide spray” value in data set [2] is reported as “significant initial damage to the homozygous (HOM) compared to the heterozygous (HET) siblings”. For the same molecule, the “promotion of expression of a heterologous sequence in maize” value in the data set on maize is recorded as “successfully used to promote the expression of a heterologous sequence in maize”.
